Biological target: SARS-CoV-2 receptor-binding domain (RBD) homodimer (SARS-CoV-2) (UniProt P0DTC2)
Assay: reducing and non-reducing SDS-PAGE

SARS-CoV-2 receptor-binding domain (RBD) homodimer (from UniProt P0DTC2 319-541) (domain or fragment)
stoichiometry N: 2
